Data on nine sequences can be found in patent publication US20150337309.

For data set [1], the target named is T1, periostin (Homo sapiens) (UniProt Q15063).
T1 sequence: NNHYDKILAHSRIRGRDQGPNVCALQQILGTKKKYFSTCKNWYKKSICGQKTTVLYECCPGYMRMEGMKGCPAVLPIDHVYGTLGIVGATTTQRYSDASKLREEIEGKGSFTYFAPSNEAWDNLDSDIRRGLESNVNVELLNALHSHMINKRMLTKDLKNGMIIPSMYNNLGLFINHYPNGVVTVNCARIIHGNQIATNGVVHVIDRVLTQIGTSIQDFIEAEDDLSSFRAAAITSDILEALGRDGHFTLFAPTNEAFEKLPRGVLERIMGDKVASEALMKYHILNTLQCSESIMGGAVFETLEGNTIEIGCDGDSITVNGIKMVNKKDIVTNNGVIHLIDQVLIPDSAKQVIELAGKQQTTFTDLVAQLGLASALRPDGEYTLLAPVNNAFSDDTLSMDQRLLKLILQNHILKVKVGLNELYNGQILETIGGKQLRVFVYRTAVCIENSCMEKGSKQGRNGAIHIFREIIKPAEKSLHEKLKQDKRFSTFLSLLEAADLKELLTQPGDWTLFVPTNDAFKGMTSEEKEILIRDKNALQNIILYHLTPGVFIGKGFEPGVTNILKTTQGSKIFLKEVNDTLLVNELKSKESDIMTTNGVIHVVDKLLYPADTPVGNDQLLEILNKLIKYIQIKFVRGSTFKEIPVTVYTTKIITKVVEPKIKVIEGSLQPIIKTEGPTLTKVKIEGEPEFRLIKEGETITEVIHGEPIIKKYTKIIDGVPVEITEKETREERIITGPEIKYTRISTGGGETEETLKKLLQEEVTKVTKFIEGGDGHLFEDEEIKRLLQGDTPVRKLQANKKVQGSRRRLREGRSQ
Briefly: filter.

For data set [2], the target named is T1, periostin (Homo sapiens). The data set is described as follows: cell_activity. The settings on record: BndU at all n [BndU at 6,7,9,14,16,21,22,26,28,31,34,35,44]; MDA-MB-231 adhesion to periostin-coated wells, 100 nM aptamer; control aptamer no effect.

As to “ACGAGTCTGGTCCTTCCTTTGACGACTATTGTTTGGTATCGATCAACAACAA [PNDA-1]”, the Kd with periostin (Homo sapiens) [1] (BndU at all n [BndU at 6,8,11,14,15,18,19,20,27,29,30,32,33,34,37,39,43], Bmax 92%) came out at 2.85 nM.
As for “ACGAGTTGTCGCATGTGCGGTTCAGTCTGGTCCTTCAGCACCGTACAACAA [PNDA-3]”, the activity with periostin (Homo sapiens) [2] was 60 % inhibition. In the data set with periostin (Homo sapiens) [1] (BndU at all n [BndU at 6,7,9,14,16,21,22,26,28,31,34,35,44], Bmax 95%), this sequence had a Kd of 1.07 nM.
In the data set with periostin (Homo sapiens) [1] (BndU at all n of the core [BndU at 20,21,23,28,30,35,36,40,42,45,48,49,58], Bmax 81%, same buffer, 37 C), “GATGTGAGTGTGTGACGAGTTGTCGCATGTGCGGTTCAGTCTGGTCCTTCAGCACCGTACAACAACAGAACAAGGAAAGG [clone 8 full length]” returned a Kd of 1.14 nM.
Turning to “GATGTGAGTGTGTGACGAGTCTGGTCCTTCCTCCCTAATTGCTGTTGAGGTATCGGCTACAACAACAGAACAAGGAAAGG [clone 17 full length]”, the Kd with periostin (Homo sapiens) [1] (BndU at all n of the core [BndU at 20,22,25,28,29,32,36,39,40,43,45,46,51,53,58], Bmax 78%, same buffer, 37 C) came to 0.63 nM.
On to “GATGTGAGTGTGTGACGAGTCTGGTCCTTCCTTTGACGACTATTGTTTGGTATCGGACAACAACAACAGAACAAGGAAAGG [clone 5 full length]”, for which the Kd in the data set with periostin (Homo sapiens) [1] (BndU at all n of the core [BndU at 20,22,25,28,29,32,33,34,41,43,44,46,47,48,51,53], Bmax 80%, same buffer, 37 C) is 1.41 nM.
Take “GATGTGAGTGTGTGACGAGTCTGGTCCTTCCTGTATTAGATCATATCCTTAGGTATCGTCAACAACAGAACAAGGAAAGG [clone 1 full length]”: the Kd with periostin (Homo sapiens) [1] (BndU at all n of the core [BndU at 20,22,25,28,29,32,34,36,37,41,44,46,49,50,54,56,59], Bmax 80%, same buffer, 37 C) came out at 0.6 nM.
For the sequence “ACGAGTCTGGTCCTTCCTCCCTAATTGCTGTTGAGGTATCGGCTACAACAA [PNDA-4]”, the Kd with periostin (Homo sapiens) [1] (BndU at all n [BndU at 6,8,11,14,15,18,22,25,26,29,31,32,37,39,44], Bmax 90%) stood at 1 nM.
In the data set with periostin (Homo sapiens) [1] (BndU at all n of the core [BndU at 20,27,28,31,35,39,42,45,46,55], Bmax 72%, 200 mM HEPES, 510 mM NaCl, 25 mM KCl, 25 mM MgCl2, 37 C), “GATGTGAGTGTGTGACGAGTCACACGTTGATGACTGGATGGTAGTTAAAGAGGGTGGGGCAACAACAGAACAAGGAAAGG [clone 3 full length]” yielded a Kd of 0.54 nM.
“ACGAGTCACACGTTGATGACTGGATGGTAGTTAAAGAGGGTGGGGCAACAA [PNDA-2]” returned a Kd with periostin (Homo sapiens) [1] (BndU at all n [BndU at 6,13,14,17,21,25,28,31,32,41], Bmax 78%) of 7.41 nM.
